Among the data in patent publication US20050037969A1 (ARBOR VITA, published 2005) are binding result and Kd values, retold here.

Assay [1] deals with T1, GST-LIM protein PDZ domain fusion protein (Human, UniProt Q96HC4 2-85).
T1 construct: also called Human LIM protein; not shown: glutathione S-transferase encoded by vector pGEX-3X (Pharmacia)
T1 sequence: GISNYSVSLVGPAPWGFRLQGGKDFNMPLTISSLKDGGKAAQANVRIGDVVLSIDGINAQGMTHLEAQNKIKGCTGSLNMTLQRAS
Kind of assay: A/G assays.

Assay [2] addresses T2, GST-41.8 kD protein (KIAA0751) PDZ domain fusion protein (Mus musculus (Mouse), UniProt Q9EQZ7 682-763).
T2 construct: also called 41 kd; hypoth; not shown: glutathione S-transferase encoded by vector pGEX-3X (Pharmacia)
T2 sequence: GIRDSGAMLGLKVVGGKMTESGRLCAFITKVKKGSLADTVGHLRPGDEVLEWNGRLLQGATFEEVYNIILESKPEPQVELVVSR
The experiment in a line: A/G assays.

Assay [3] addresses T3, KIAA0807 (PDZ domain)-GST fusion protein (human, UniProt Q6P0Q8 1104-1192).
T3 construct: also called K807; KIAA807; not shown: glutathione S-transferase encoded by vector pGEX-3X (Pharmacia)
T3 sequence: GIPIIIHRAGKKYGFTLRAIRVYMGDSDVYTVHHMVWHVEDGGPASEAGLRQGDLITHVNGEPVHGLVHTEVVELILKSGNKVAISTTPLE
Kind of assay: A/G plate assays, Table 2 matrix.

In assay [4] the target is T4, GST-KIAA0303 PDZ domain fusion protein (Homo sapiens (Human), UniProt O15021 1138-1228).
T4 construct: also called K303; not shown: glutathione S-transferase encoded by vector pGEX-3X (Pharmacia)
T4 sequence: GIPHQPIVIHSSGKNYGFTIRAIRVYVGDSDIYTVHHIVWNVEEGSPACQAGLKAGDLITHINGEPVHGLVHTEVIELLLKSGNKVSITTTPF
Kind of assay: A/G plate assays, Table 2 matrix.

Assay [5] concerns the target T5, GST-PTN-4 PDZ domain fusion protein (Homo sapiens (Human), UniProt P29074 517-605).
T5 construct: also called protein-tyrosine phosphatase meg1; not shown: glutathione S-transferase encoded by vector pGEX-3X (Pharmacia)
T5 sequence: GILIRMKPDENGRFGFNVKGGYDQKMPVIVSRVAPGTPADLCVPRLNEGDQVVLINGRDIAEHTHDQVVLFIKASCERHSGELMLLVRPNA
The experiment in a line: A/G plate assays, Table 2 matrix.

The target in assay [6] is T6, GST-PSD95 fusion protein (PDZ domains 1-3) (human, UniProt P31016 56-395 (rat entry)).
T6 construct: also called human post-synaptic density protein 95; not shown: glutathione S-transferase encoded by vector pGEX-3X (Pharmacia)
Kind of assay: A/G plate assays, Table 2 matrix.

Assay [7] addresses T7, GST-AF6 PDZ domain fusion protein (Homo sapiens (Human), UniProt P55196 1001-1093).
T7 construct: also called af-6 protein; not shown: glutathione S-transferase encoded by vector pGEX-3X (Pharmacia)
T7 sequence: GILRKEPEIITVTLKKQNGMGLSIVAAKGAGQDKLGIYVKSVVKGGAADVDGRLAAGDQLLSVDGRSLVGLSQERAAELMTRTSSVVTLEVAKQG
The experiment in a line: A/G plate assays, Table 2 matrix.

Assay [8] addresses T2, GST-41.8 kD protein (KIAA0751) PDZ …. The experiment in a line: G assay: biotinylated peptide on plate-bound GST-PDZ fusion, streptavidin-HRP, OD 450 nm.
Assay [9] concerns the target T8, GST-TIAM1 PDZ domain fusion protein (Homo sapiens (Human), UniProt Q13009 845-931).
T8 construct: also called TLAM1; T-lymphoma invasion and metastasis inducing protein 1; not shown: glutathione S-transferase encoded by vector pGEX-3X (Pharmacia)
Kind of assay: A/G plate assays, Table 2 matrix.

Assay [10] has as its target T6, GST-PSD95 fusion protein (PDZ domains …). Kind of assay: G assay: biotinylated peptide on plate-bound GST-PDZ fusion, OD 450 nm.
For assay [11], the target named is T3, KIAA0807 (PDZ domain)-GST fusion protein. The experiment in a line: G assay on KIAA0807:GST fusion protein, 1 uM labeled peptide.
Assay [12] addresses T2, GST-41.8 kD protein (KIAA0751) PDZ …. The experiment in a line: G assay: biotinylated peptide on plate-bound GST-PDZ fusion, OD 450 nm; no GST-alone bar on the sheet.
In assay [13] the target is T6, GST-PSD95 fusion protein (PDZ domains …). The experiment in a line: G assay titration of biotinylated peptide on plate-bound GST-PDZ, apparent affinity from saturation fit.
Assay [14] has the same target. Kind of assay: A/G assays.
The target of assay [15] is T2, GST-41.8 kD protein (KIAA0751) PDZ …. The experiment in a line: A/G plate assays, Table 2 matrix.
The target in assay [16] is T3, KIAA0807 (PDZ domain)-GST fusion protein. The experiment in a line: G assay on KIAA0807:GST fusion protein, 10 uM labeled peptide.
Assay [17] deals with T9, GST-RGS12 PDZ domain fusion protein (human, UniProt O14924 17-85).
T9 construct: also called human regulator of G-protein signalling 12; not shown: glutathione S-transferase encoded by vector pGEX-3X (Pharmacia)
T9 sequence: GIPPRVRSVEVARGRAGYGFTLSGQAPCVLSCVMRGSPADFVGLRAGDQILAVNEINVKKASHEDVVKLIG
Kind of assay: A/G plate assays, Table 2 matrix.

The target in assay [18] is T1, GST-LIM protein PDZ domain fusion …. The experiment in a line: A/G plate assays, Table 2 matrix.
The target of assay [19] is T6, GST-PSD95 fusion protein (PDZ domains …). Kind of assay: G assay: biotinylated peptide on plate-bound GST-PDZ fusion, streptavidin-HRP, OD 450 nm.

Ends that are not written are not given here. * marks the point of attachment. Biotin = O=C1N[C@H]2[C@H](CS[C@H]2CCCCC(=O)*)N1

T6 sequence (P31016 other isoform, or with tags, fused parts or gaps): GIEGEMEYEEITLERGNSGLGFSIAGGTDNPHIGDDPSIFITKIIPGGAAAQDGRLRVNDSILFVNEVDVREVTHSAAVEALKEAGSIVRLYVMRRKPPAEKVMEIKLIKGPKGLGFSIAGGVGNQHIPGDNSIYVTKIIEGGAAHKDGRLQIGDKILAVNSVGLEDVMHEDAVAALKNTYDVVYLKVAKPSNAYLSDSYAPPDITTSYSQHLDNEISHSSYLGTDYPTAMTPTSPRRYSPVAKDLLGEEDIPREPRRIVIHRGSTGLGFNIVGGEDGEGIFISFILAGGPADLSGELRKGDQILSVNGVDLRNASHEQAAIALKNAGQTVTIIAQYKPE
T8 sequence (Q13009 other isoform, or with tags, fused parts or gaps): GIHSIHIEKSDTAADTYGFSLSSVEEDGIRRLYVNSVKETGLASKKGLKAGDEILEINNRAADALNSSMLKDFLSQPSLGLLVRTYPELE

B1: Spectrin (beta) C-terminal peptide AA32L, biotinylated (peptide)
peptide: Biotin-SFPPCGHRENVPGQSLVSFV
notes: Marked (S), sticky; also called Spectrin beta (S); Spectrin β
Take B1: the binding result in assay [1] is on record as “no binding”; in assay [2] it was “no binding”; in assay [3], “binds”; in assay [4], “binds”; in assay [5], “binds”; in [6] it was “binds”. Further, in [7], the binding result is listed as “binds”.
Take Biotin-SVFSIPTLWSPWPPSSSSQL (also called CD3η; CD3-eta) [CD3n C-terminal peptide AA4L, biotinylated]: the binding result in assay [1] was “no binding”; in [3], “binds”; in assay [6], “binds”; in assay [8], “binds”.

B2: CD138 C-terminal peptide AA18L, biotinylated (peptide)
peptide: Biotin-PKQANGGAYQKPTKQEEFYA
notes: also called CD138 (syndecan-1); CD138 (syndecan)
Consider B2, for which the binding result in assay [1] was “no binding”; in assay [9] it was “binds”; in [8] it was “binds”; in assay [10], “no binding”.
On to Biotin-PSWRRSSLSESENATSLTTF (also called CXCR5) [BLR-1 C-terminal peptide AA45L, biotinylated], for which the binding result was “no binding” in assay [1], “binds” in assay [11], “no binding” in [10] and “no binding” in assay [12].
For the molecule Biotin-ISGTPTSTMVHGMTSSSSVV [Clasp-2 C-terminal peptide AA2L, biotinylated], the binding result in assay [1] is listed as “no binding”. Also, in assay [13], the Kd came to 45 µM.
As to Biotin-ARKANMKGSYSLVEAQKSKV (also called CD106) [VCAM1 C-terminal peptide AA17L, biotinylated], the binding result in assay [1] is given as “no binding”; in assay [14], “no binding”; in assay [3] it was “binds”; in assay [9], “binds”; in assay [4], “binds”; in assay [15], “binds”.
As to Biotin-KDITSDSENSNFRNEIQSLV (also called CD95 (Apo-1/Fas); AAI3L) [CD95 (Fas) C-terminal peptide AA13L, biotinylated], the binding result in assay [1] is “no binding”; in assay [8], “binds”. Also, the Kd in assay [13] is 85 µM.
On to Biotin-LASKSAEEGKQIPDSLSTDL [DOCK2 C-terminal peptide AA40L, biotinylated], for which the binding result in assay [1] was “no binding”; in [2], “no binding”; in assay [6], “binds”; in [16], “binds”.
As for Biotin-EVICYIEKPGVETLEDSVF [CDW125 (IL5R) C-terminal peptide AA28L, biotinylated], the binding result was “no binding” in assay [1]; “no binding” in assay [2]; “no binding” in [14]; “binds” in [5]; “binds” in assay [17].
Turning to Biotin-QGDPALQDAGDSSRKEYFI (also called GC) [Glycophorin C C-terminal peptide AA37L, biotinylated], the binding result in assay [1] is reported as “no binding”; in assay [15], “binds”; in assay [6] it was “binds”; in assay [7], “binds”.
For the molecule Biotin-TREDIYVNYPTFSRRPKTRV [DNAM-1 C-terminal peptide AA22L, biotinylated], the binding result in [18], in assay [15], in assay [17], in assay [7] and in [19] was “binds” throughout.
On to Biotin-STNHSIGSTQSTPCSTSSMA (also called CD105 (endoglin)) [CD105 C-terminal peptide AA16L, biotinylated], for which the binding result in assay [2] is “no binding”; in [14], “no binding”; in assay [18], “binds”.
For Biotin-TTNNNPNSAVNIKKIFTDV [KV1.3 C-terminal peptide AA33L, biotinylated], the binding result in assay [1] was “no binding”; in assay [3], “binds”; in assay [15] it was “binds”; in assay [17], “binds”; in assay [19] it was “binds”.
